Measured values from patent publication US20140072613A1, “Compositions and Methods for Treating Cutaneous Scarring” (priority 2012, published 2014).

Tests used:
Assay in all cases: biochemical
Type in all cases: biochemical
[1] = biological target: 266 human kinases (Homo sapiens, UniProt O60674); conditions: JAK2(h); 100 μM
Procedure, shortened: (§1)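 Read-out by scintillation counting of radiolabelled, positively charged substrate bound to negatively charged filter; activity normalised to 100% control. Phosphate transferred from radiolabelled ATP.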

[2] = biological target: 266 human kinases (Homo sapiens, UniProt P07949); conditions: Ret(h); 100 μM
Procedure, shortened: as §1

[3] = biological target: 266 human kinases (Homo sapiens, UniProt P08581, D1228H); conditions: Met(D1246H)(h); 100 μM
Procedure, shortened: as §1

[4] = biological target: 266 human kinases (Homo sapiens, UniProt P08581, D1228N); conditions: Met(D1246N)(h); 100 μM
Procedure, shortened: as §1

[5] = biological target: T1, 266 human kinases (Homo sapiens, UniProt P36896); conditions: ALK4(h); 100 μM
T1 sequence (P36896 24-505): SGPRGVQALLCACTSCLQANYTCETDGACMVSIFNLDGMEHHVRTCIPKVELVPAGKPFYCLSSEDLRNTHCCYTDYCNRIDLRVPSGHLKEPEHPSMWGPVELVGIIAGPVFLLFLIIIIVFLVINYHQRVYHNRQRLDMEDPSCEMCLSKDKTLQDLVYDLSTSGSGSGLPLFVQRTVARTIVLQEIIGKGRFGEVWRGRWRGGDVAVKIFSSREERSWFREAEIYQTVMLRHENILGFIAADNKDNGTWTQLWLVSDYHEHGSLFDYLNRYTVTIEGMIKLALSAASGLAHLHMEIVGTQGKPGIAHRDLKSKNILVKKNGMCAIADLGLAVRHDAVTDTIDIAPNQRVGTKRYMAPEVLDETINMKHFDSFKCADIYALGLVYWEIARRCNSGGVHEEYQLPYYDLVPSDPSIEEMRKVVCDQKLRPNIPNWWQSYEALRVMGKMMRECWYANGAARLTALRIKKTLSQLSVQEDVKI
Procedure, shortened: as §1

[6] = biological target: T2, 266 human kinases (Homo sapiens, UniProt P41743); conditions: PKCι(h); 100 μM
T2 sequence (P41743 1-596): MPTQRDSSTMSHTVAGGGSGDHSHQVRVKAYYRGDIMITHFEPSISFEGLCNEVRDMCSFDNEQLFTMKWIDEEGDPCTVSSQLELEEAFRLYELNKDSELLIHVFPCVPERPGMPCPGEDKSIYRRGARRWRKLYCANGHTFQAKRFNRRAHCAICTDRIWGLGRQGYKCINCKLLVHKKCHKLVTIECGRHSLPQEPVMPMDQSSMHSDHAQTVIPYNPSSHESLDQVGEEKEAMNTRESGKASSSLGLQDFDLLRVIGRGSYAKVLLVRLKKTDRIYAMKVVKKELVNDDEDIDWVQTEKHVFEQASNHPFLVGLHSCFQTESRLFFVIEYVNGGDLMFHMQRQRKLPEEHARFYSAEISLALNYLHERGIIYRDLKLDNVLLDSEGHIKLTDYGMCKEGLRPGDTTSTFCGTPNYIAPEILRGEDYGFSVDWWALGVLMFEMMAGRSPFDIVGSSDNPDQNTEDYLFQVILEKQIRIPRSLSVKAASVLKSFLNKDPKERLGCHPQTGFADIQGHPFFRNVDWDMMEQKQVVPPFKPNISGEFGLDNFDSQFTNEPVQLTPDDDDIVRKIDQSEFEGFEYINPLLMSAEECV
Procedure, shortened: as §1

[7] = biological target: T3, 266 human kinases (Homo sapiens, UniProt Q08881); conditions: Itk(h); 100 μM
T3 sequence (Q08881 1-620): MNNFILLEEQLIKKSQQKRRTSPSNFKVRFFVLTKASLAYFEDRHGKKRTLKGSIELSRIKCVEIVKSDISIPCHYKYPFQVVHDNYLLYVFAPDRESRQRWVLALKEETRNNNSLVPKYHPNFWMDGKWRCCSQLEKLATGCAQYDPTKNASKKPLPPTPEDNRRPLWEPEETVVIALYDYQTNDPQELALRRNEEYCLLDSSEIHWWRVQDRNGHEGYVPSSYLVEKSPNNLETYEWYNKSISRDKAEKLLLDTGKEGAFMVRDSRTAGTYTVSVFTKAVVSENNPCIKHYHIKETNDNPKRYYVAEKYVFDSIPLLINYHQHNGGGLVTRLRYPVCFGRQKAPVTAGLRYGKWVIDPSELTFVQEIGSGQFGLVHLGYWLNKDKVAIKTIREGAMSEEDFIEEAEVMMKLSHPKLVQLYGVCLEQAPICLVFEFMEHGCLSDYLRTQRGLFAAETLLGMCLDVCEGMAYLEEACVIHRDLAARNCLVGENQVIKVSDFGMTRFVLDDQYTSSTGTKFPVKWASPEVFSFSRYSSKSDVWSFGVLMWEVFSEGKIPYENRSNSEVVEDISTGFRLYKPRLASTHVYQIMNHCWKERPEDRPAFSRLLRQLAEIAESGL
Procedure, shortened: as §1

[8] = biological target: 266 human kinases (Homo sapiens, UniProt Q16513); conditions: PRK2(h); 100 μM
Procedure, shortened: as §1

[9] = biological target: 266 human kinases (Homo sapiens, UniProt Q86UE8); conditions: TLK2(h); 100 μM
Procedure, shortened: as §1

[10] = biological target: 266 human kinases (Homo sapiens, UniProt Q9UIK4); conditions: DAPK2(h); 100 μM
Procedure, shortened: as §1

266 human kinases (Homo sapiens, UniProt Q16513), sequence (Q16513 whole entry): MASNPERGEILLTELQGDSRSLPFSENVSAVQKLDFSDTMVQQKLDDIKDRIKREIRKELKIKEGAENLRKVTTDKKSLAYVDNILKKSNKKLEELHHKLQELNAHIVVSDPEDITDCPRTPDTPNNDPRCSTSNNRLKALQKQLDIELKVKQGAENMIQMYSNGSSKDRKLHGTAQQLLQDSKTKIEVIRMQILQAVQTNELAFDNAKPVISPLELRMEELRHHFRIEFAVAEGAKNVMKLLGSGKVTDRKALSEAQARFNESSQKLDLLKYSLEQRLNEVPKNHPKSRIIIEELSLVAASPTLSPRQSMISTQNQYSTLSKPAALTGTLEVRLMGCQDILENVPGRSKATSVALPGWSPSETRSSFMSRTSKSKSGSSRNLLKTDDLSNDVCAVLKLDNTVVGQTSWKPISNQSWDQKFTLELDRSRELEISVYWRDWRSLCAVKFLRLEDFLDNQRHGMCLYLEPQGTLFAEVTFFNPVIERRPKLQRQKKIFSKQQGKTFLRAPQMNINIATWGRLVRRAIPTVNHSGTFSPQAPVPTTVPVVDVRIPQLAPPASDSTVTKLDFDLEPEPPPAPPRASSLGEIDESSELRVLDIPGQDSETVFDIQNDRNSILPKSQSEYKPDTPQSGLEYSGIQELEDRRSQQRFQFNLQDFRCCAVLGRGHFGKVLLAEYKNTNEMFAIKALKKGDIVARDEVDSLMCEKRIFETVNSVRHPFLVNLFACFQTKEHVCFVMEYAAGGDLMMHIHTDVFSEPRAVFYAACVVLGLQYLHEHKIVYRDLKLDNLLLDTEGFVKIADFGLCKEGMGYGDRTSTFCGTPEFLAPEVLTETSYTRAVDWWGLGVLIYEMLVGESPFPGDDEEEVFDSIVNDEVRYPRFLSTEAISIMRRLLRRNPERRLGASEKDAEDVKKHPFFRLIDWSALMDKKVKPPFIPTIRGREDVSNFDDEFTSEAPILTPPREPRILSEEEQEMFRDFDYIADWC
266 human kinases (Homo sapiens, UniProt O60674), sequence (O60674 whole entry): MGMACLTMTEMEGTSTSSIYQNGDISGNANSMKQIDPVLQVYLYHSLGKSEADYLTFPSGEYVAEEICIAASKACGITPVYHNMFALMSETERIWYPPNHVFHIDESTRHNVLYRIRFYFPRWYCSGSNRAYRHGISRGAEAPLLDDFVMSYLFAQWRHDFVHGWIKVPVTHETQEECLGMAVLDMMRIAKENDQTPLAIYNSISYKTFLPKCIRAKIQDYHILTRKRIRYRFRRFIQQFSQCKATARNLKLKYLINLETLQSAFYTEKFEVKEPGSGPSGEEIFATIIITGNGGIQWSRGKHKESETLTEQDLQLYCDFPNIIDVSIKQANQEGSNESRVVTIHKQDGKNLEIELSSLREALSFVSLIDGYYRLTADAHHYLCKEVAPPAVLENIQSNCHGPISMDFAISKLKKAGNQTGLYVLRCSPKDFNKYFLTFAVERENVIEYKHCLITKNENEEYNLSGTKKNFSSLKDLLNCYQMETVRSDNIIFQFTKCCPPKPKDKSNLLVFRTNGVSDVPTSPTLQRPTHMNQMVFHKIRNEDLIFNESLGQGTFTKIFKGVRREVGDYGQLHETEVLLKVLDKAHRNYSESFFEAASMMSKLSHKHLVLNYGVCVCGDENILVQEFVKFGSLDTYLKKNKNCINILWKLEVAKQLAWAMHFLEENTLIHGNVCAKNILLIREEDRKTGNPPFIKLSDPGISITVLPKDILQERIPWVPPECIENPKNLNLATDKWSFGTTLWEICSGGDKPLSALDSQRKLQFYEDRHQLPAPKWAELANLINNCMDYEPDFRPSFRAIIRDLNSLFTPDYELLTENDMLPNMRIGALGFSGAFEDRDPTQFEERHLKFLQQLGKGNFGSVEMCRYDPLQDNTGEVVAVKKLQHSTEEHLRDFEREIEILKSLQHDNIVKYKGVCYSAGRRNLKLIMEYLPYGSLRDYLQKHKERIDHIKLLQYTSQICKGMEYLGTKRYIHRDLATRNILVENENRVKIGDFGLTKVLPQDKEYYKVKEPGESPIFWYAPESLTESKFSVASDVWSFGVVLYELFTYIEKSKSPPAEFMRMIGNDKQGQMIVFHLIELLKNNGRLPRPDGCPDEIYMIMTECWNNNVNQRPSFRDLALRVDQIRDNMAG
266 human kinases (Homo sapiens, UniProt Q86UE8), sequence (Q86UE8 whole entry): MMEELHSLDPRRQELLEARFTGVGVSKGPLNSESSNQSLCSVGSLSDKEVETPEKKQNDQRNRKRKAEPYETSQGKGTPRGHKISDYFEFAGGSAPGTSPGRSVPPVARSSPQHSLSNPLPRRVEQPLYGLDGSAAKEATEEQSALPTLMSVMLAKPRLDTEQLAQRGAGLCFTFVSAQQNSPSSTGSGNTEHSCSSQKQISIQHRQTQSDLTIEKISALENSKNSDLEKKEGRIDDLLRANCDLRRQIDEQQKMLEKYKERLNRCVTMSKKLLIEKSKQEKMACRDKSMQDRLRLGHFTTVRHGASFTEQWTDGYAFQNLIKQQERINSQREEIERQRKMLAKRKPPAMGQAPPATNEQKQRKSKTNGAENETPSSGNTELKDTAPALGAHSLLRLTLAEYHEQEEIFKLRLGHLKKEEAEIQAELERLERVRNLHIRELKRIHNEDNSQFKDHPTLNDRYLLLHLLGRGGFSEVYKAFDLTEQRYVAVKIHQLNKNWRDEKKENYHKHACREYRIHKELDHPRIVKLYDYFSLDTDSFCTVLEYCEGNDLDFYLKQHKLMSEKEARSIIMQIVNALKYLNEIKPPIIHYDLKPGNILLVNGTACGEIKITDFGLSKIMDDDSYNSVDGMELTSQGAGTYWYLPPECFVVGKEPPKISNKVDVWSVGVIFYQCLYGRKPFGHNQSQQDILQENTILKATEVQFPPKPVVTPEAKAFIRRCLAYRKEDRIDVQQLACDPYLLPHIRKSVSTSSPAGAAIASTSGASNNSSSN
266 human kinases (Homo sapiens, UniProt Q9UIK4), sequence (Q9UIK4 whole entry): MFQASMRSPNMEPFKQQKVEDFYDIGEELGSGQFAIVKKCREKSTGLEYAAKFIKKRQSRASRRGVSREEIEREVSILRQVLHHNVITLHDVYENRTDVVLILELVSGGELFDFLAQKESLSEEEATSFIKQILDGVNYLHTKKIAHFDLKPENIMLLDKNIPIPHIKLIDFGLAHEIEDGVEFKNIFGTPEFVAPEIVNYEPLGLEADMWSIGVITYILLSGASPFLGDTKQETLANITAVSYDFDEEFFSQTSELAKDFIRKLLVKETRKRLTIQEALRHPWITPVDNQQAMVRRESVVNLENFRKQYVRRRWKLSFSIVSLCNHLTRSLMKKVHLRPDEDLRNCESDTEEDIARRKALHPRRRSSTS

Row | Sequence | % activity [1] [%] | % activity [2] [%] | % activity [3] [%] | % activity [4] [%] | % activity [5] [%] | % activity [6] [%] | % activity [7] [%] | % activity [8] [%] | % activity [9] [%] | % activity [10] [%]
1 | HRRIKAWLKKIKALARQLGVAA (mammal) [MMI-0500] | 49 | 174 | 150 | 90 | 81 | 7 | 7 | 7 | 133 | 3
2 | YARAAARQARAKALNRQLGVA (mammal) [MMI-0200] | 131 | 96 | 139 | 149 | 152 | 97 | 98 | 74 | 129 | 92
